Assay results: patent publication US11951175B2, “Bioconjugates containing sulfamide linkers for use in treatment” (priority 2016, dated 2024)

B1: EndoSH (protein)
chain: MPSIDSLHYLSENSKKEFKEELSKAGQESQKVKEILAKAQQADKQAQELAKMKIPEKIPMKPLHGPLYGGYFRTWHDKTSDPTEKDKVNSMGELPKEVDLAFIFHDWTKDYSLFWKELATKHVPKLNKQGTRVIRTIPWRFLAGGDNSGIAEDTSKYPNTPEGNKALAKAIVDEYVYKYNLDGLDVDVEHDSIPKVDKKEDTAGVERSIQVFEEIGKLIGPKGVDKSRLFIMDSTYMADKNPLIERGAPYINLLLVQVYGSQGEKGGWEPVSNRPEKTMEERWQGYSKYIRPEQYMIGFSFYEENAQEGNLWYDINSRKDEDKANGINTDITGTRAERYARWQPKTGGVKGGIFSYAIDRDGVAHQPKKYAKQKEFKDATDNIFHSDYSVSKALKTVMLKDKSYDLIDEKDFPDKALREAVMAQVGTRKGDLERFNGTLRLDNPAIQSLEGLNKFKKLAQLDLIGLSRITKLDRSVLPANMKPGKDTLETVLETYKKDNKEEPATIPPVSLKVSGLTGLKELDLSGFDRETLAGLDAATLTSLEKVDISGNKLDLAPGTENRQIFDTMLSTISNHVGSNEQTVKFDKQKPTGHYPDTYGKTSLRLPVANEKVDLQSQLLFGTVTNQGTLINSEADYKAYQNHKIAGRSFVDSNYHYNNFKVSYENYTVKVTDSTLGTTTDKTLATDKEETYKVDFFSPADKTKAVHTAKVIVGDEKTMMVNLAEGATVIGGSADPVNARKVFDGQLGSETDNISLGWDSKQSIIFKLKEDGLIKHWRFFNDSARNPETTNKPIQEASLQIFNIKDYNLDNLLENPNKFDDEKYWITVDTYSAQGERATAFSNTLNNITSKYWRVVFDTKGDRYSSPVVPELQILGYPLPNADTIMKTVTTAKELSQQKDKFSQKMLDELKIKEMALETSLNSKIFDVTAINANAGVLKDCIEKRQLLKKGGGGSGGGGSGGGGSHHHHHHEFGGGGSGGGGSGGGGSAPAPVKQGPTSVAYVEVNNNSMLNVGKYTLADGGGNAFDVAVIFAANINYDTGTKTAYLHFNENVQRVLDNAVTQIRPLQQQGIKVLLSVLGNHQGAGFANFPSQQAASAFAKQLSDAVAKYGLDGVDFDDEYAEYGNNGTAQPNDSSFVHLVTALRANMPDKIISLYNIGPAASRLSYGGVDVSDKFDYAWNPYYGTWQVPGIALPKAQLSPAAVEIGRTSRSTVADLARRTVDEGYGVYLTYNLDGGDRTADVSAFTRELYGSEAVRTP
modifications: fusion protein EndoSH

Tests used:
[1] = reported value for Adcetris; cited from earlier work
[2] = Rat safety study with cAC10 ADCs 115, 116 and Adcetris; format: in vivo, Wistar rats; conditions: as in legend of FIG. 19a-c: 115/116 at 40, 60, 70 or 80 mg/kg, Adcetris at 15, 20 or 40 mg/kg, mean body weight
Description: […] The test items were administered via intravenous (bolus) injection using a microflex infusion set introduced into a tail vein (2 mL/kg at 1 mL/min). One group of animals was treated with vehicle (control). After dosing, all animals were maintained for a 12-day observation period. Surviving animals were euthanized on day 12. Each animal was weighed at the time of randomization/selection, prior to dosing (day 0) and on all subsequent days up to day 12. Any individual animal with a single observation of >30% body weight loss or three consecutive measurements of >25% body weight loss was euthanized. All animals (including any found dead or killed moribund) were submitted to full necropsy procedures. Histopathological examinations of the liver, spleen and sciatic nerve was performed for all animals. Blood samples (including for animals killed moribund) were collected and subjected to determination of both haematological as well as serum clinical chemistry parameters.

[3] = system: Trastuzumab having high-mannose glycans; assay: Trimming of high-mannose trastuzumab glycans by EndoSH; format: biochemical; conditions: 1 w/w % EndoSH, 37° C., after 3 hours, 25 mM Tris pH 8, MS analysis
Description: Trastuzumab having high-mannose glycans (obtained via transient expression in CHO K1 cells in the presence of kifunensine performed by Evitria (Zurich, Switzerland)) (14 mg/mL) in 25 mM Tris buffer pH 8, was trimmed using a concentration of either 0.1 or 1 w/w % EndoSH. The reactions, 350 μg high-mannose trastuzumab (25 μL) and the appropriate amount of EndoSH, were stirred at 37° C. and analyzed by MS analysis over time, 1-3 hours. Samples were subjected to Fabricator treatment prior to analysis.

Trastuzumab = assay: Trimming of trastuzumab glycans by EndoSH; format: biochemical; conditions: 0.1 w/w % EndoSH, 37° C., after 1 hour, 25 mM Tris pH 8, MS analysis
Description: Trastuzumab (obtained from Epirus biopharma (Utrecht, The Netherlands); 14 mg/mL) in 25 mM Tris buffer pH 8, was trimmed using a concentration of either 0.1 or 1 w/w % EndoSH. The reactions, 350 μg trastuzumab (25 μL) and the appropriate amount of EndoSH, were stirred at 37° C. and analyzed by MS analysis over time, 1 to 3 hours. Samples were subjected to Fabricator treatment prior to analysis.

| Molecule | MTD (reported) [1] [mg/kg] | MTD [2] [mg/kg] | conversion to the trimmed product (core GlcNAc) [3] | conversion to the trimmed product (core GlcNAc) (Trastuzumab) |
| --- | --- | --- | --- | --- |
| Adcetris: positive control; DAR4 ADC with antibody brentuximab and payload MMAE [reference compound] | 18 | 15 | – | – |
| B1 | – | – | Full conversions | Full conversions |
